The text below walks through data of US6818617.

pIC50: −log10 of the molar value. Like-named read-outs stand apart in the source and are kept apart here.

The target of assay [1] is integrin αIIbβ3 (human) (UniProt P08514). Kind of assay: inhibition of cell adhesion: A5 (CHO αIIbβ3+) cells to immobilized fibrinogen.
The target is the same in assay [2]. Nature of the assay: cell-based or functional assay.
Assay [3] has as its target integrin α4β7 (UniProt P13612). Nature of the assay: inhibition of cell adhesion: RPMI 8866 cells to MadCAM-1.
Assay [4] has as its target integrin α4β1 on Jurkat cells (UniProt P13612). Nature of the assay: inhibition of cell adhesion: Jurkat cells to immobilized VCAM-1.
In assay [5] the target is integrin α6β1 on K562 cells transfected with α6 (UniProt P23229). Kind of assay: inhibition of cell adhesion: K562 (α6+) cells to laminin.
Chain of integrin α6β1 on K562 cells transfected with α6 (P23229 24-1130, chain 1 of 2): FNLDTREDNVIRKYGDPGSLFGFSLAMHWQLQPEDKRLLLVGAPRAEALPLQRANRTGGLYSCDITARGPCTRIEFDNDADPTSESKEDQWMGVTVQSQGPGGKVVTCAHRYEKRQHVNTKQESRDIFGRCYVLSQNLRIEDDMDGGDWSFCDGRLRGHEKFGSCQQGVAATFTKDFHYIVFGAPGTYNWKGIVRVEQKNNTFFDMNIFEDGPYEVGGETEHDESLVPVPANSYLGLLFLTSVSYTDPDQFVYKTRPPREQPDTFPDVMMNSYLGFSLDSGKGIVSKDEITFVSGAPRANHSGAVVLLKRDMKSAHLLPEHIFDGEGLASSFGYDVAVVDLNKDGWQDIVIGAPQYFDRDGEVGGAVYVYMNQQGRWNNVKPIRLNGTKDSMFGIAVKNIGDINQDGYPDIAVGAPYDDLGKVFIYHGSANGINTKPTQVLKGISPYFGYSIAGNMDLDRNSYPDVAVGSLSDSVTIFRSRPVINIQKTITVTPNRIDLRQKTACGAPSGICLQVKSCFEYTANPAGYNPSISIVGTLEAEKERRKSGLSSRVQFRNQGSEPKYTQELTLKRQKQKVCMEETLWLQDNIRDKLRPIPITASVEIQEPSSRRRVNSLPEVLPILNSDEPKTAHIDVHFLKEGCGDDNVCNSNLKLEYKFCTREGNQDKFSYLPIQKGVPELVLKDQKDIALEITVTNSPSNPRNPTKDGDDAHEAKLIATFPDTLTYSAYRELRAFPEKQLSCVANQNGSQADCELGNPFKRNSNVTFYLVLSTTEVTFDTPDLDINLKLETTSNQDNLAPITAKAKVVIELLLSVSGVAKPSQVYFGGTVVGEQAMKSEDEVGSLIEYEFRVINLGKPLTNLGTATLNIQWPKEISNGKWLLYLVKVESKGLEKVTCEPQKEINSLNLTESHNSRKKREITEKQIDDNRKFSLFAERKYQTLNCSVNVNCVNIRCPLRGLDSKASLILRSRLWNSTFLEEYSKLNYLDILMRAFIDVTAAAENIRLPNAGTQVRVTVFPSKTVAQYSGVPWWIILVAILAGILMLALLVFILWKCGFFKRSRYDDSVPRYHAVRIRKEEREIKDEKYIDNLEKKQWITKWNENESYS
Chain of integrin α6β1 on K562 cells transfected with α6 (P05556 21-798, chain 2 of 2, further chain): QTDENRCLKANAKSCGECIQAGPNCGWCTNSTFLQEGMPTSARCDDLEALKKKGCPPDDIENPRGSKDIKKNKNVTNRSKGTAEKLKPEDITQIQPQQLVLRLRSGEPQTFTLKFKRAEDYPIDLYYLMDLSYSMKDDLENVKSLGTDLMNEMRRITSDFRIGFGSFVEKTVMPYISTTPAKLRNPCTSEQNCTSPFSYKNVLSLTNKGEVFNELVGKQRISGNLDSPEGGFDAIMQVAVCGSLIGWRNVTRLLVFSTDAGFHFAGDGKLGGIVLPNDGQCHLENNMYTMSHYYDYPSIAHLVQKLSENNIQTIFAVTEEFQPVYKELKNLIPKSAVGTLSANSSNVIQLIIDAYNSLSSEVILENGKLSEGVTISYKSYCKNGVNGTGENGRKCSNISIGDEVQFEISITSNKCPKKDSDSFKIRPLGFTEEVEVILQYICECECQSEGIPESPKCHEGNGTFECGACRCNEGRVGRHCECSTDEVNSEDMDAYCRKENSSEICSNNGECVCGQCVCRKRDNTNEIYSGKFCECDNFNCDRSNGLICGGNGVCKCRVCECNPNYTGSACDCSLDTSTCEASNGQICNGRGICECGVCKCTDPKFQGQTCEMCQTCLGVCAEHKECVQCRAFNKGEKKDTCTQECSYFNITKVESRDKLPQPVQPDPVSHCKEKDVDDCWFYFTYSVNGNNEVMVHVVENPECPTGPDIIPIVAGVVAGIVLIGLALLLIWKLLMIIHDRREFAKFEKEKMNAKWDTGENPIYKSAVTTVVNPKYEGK
Assay [6] concerns the target integrin αvβ3 (human) (UniProt P06756). Nature of the assay: inhibition of cell adhesion: VNRC3 (CHO αvβ3+) cells to immobilized vitronectin.
For assay [7], the target named is integrin α4β1 on Jurkat cells (UniProt P13612).
In assay [8] the target is integrin α4β7 (UniProt P13612).
Assay [9] deals with integrin α4β1 on Jurkat cells (UniProt P13612). Kind of assay: inhibition of cell adhesion: Jurkat cells to CS-1.

Chain of integrin αvβ3 (human) (P06756 31-1048, chain 1 of 2): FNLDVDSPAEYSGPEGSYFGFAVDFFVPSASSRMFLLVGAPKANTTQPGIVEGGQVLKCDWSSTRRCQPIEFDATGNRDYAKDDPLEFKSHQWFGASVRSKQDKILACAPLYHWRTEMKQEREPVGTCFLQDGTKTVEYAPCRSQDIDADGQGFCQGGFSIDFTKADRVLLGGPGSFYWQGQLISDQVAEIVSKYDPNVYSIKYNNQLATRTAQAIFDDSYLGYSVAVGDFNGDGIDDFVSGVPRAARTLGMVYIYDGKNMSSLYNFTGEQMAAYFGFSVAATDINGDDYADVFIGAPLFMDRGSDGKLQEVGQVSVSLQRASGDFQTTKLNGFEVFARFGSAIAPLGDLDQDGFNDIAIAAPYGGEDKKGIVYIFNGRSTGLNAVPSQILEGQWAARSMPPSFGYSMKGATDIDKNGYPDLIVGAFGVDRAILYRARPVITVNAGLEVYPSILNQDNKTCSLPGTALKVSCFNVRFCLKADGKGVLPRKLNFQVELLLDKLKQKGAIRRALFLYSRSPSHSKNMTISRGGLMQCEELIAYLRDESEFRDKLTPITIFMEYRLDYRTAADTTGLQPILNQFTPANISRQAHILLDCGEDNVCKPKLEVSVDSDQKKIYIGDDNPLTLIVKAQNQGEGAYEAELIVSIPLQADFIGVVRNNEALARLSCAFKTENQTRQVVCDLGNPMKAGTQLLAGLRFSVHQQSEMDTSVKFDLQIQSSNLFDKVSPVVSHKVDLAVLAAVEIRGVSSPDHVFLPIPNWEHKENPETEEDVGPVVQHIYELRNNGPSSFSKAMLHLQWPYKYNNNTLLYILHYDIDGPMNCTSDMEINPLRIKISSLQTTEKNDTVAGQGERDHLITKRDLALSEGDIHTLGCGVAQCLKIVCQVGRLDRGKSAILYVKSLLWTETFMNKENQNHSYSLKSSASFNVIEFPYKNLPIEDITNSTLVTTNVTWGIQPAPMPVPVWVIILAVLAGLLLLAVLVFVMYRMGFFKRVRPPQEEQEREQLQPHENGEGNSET
Chain of integrin αvβ3 (human) (P05106 27-788, chain 2 of 2, further chain): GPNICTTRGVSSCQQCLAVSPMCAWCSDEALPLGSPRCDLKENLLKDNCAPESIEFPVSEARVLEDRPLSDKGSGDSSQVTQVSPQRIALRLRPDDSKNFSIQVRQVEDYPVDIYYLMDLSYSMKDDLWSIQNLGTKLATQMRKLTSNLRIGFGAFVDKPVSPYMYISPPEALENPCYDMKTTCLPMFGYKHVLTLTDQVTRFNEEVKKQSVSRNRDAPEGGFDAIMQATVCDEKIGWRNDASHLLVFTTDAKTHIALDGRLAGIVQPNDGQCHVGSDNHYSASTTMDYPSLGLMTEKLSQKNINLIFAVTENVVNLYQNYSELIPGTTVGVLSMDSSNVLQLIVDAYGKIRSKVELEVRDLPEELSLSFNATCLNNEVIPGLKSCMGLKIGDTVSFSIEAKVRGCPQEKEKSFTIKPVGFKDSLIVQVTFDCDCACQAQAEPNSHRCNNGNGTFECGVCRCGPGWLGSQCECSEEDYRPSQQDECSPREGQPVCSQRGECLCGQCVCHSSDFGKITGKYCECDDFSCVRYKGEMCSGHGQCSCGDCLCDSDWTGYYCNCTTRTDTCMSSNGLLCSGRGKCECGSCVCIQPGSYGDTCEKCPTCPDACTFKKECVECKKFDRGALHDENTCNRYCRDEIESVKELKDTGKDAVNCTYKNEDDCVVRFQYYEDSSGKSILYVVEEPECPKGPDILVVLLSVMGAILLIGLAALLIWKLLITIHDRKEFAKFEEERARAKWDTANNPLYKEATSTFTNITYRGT

In general, pIC50 refers to −log10 of the IC50, conventionally taken in molar units. Low readings indicate a high IC50, high ones a low IC50. In the case of Echistatin (from UniProt P0C6R5 4-52), the pIC50 was 7.30 in assay [1]; less than 5.00 in [3]; less than 5.00 in [4]; less than 5.00 in [5]; 7.30 in assay [6]. The same substance had an IC50, ADP PA (ADP-induced platelet aggregation in platelet rich plasma) in [2] of 0.13 µM.
With “EC-3 protein, heterodimeric disintegrin from Echis carinatus suchoreki venom (from UniProt P81630 1-67; P81631 1-67)”, the negative-log IC50 (pIC50) is 6.30 in assay [1]; 8.30 in assay [3]; 7.60 in assay [4]; less than 5.00 in assay [5]; 7.55 in assay [7]; 8.22 in [8]. For the same substance, the pIC50 in assay [6] is less than 5.00; in assay [9], 7.00. Moreover, the IC50, ADP PA (ADP-induced platelet aggregation in platelet rich plasma) in assay [2] stood at 1 µM.
